Measured values taken from IntAct's records for PubMed 25465129.

Target: ab1ip_mouse Apbb1ip (UniProt Q8R5A3)
UniProt Q8R5A3, sequence (Q8R5A3 whole entry): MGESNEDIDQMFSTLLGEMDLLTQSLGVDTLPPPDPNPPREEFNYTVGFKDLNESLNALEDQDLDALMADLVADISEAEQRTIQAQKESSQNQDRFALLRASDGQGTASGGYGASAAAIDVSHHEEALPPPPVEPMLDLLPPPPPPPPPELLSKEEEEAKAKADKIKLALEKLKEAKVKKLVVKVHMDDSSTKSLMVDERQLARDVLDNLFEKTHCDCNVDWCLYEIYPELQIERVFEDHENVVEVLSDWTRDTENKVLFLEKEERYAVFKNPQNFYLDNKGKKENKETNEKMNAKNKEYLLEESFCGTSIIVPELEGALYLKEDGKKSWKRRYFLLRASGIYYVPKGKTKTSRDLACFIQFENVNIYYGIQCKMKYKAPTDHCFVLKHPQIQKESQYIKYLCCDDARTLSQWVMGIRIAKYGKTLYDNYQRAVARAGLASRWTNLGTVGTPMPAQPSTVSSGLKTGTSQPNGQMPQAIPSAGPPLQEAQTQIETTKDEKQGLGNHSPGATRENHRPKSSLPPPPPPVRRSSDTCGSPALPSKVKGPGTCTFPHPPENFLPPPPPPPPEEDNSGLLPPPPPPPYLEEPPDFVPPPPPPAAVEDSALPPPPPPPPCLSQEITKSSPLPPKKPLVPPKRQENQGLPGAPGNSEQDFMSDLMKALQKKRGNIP

effect of a mutation on the interaction	Substance
decreasing interaction strength	Talin-1 (Mus musculus), P26039 V871Y
disrupting interaction strength	Talin-1 (Mus musculus), P26039 V871Y;V1540Y
decreasing interaction strength	Talin-1 (Mus musculus), P26039 V1540Y
